Experimental findings from US20180371087A1 (published 2018) are described below.

Test [1] concerns the target T1, human LAG-3 (Lymphocyte Activation Gene-3), native or transduced, on the cell surface (UniProt P18627 23-525).
T1 chain: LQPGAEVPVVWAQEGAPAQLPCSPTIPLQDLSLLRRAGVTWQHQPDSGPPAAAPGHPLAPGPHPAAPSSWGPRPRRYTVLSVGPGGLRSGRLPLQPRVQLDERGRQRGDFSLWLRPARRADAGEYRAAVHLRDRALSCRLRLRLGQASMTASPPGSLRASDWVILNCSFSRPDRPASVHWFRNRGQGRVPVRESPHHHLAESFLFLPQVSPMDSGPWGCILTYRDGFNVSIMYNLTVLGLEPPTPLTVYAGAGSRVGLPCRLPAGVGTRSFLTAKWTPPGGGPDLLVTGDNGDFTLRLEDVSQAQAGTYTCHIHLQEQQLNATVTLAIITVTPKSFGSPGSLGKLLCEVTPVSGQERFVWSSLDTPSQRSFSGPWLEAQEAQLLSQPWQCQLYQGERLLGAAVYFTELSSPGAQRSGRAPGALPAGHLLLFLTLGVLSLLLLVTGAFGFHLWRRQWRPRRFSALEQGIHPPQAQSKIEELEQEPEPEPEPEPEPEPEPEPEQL
As to the kind of experiment: FACS binding; activated human CD4+ T cells.

For the next test, the target named is D1D4 construct. As to the kind of experiment: SPR (Biacore).

B1: LAG3.7-G4P (antibody, V domains shown)
VH: QVQLQQWGAGLLKPSETLSLTCAVYGGSFSDYYWNWIRQPPGKGLEWIGEINHGGGTNSNPSLKSRVTLSLDTSKNQFSLKLRSVTAADTAVYYCAFGYSDYEYNWFDPWGQGTLVTVSS
VL: EIVLTQSPATLSLSPGERATLSCRASQSISSYLAWYQQKPGQAPRLLIYDASNRATGIPARFSGSGSGTDFTLTISSLEPEDFAVYYCQQRSNWPLTFGQGTNLEIK
In test [1], B1 had an EC50 of 0.33 nM.

B2: LAG3.8 (antibody, V domains shown)
VH: QVQLQQWGAGLLKPSETLSLTCAVYGGSFSDYYWNWIRQPPGKGLEWIGEINHIGNTNSNPSLKSRVTLSLDTSKNQFSLKLRSVTAADTAVYYCAFGYSDYEYNWFDPWGQGTLVTVSS
VL: EIVLTQSPATLSLSPGERATLSCRASQSISSYLAWYQQKPGQAPRLLIYDASNRATGIPARFSGSGSGTDFTLTISSLEPEDFAVYYCQQRSNWPLTFGQGTNLEIKR
Take B2: binding with D1D4 construct was put at a Kd of 0.3 nM.

B3: LAG3.8 antibody variant of LAG3.1 (antibody, V domains shown)
VH: QVQLQQWGAGLLKPSETLSLTCAVYGGSFSDYYWNWIRQPPGKGLEWIGEINHIGNTNSNPSLKSRVTLSLDTSKNQFSLKLRSVTAADTAVYYCAFGYSDYEYNWFDPWGQGTLVTVSS
VL: EIVLTQSPATLSLSPGERATLSCRASQSISSYLAWYQQKPGQAPRLLIYDASNRATGIPARFSGSGSGTDFTLTISSLEPEDFAVYYCQQRSNWPLTFGQGTNLEIKR
Molecule B3 displayed an EC50 in test [1] of 0.19 nM.
